Experimental findings from PMC3273806 (Nucleic Acids Research, 2011) are described below.

For assay [1], the target named is human RAD18, wild type, His-tagged or FLAG-tagged (human, UniProt Q9NS91 1-495). Put plainly: pull-down.
Assay [2] deals with human RAD6A (human, UniProt P49459 1-152). Put plainly: pull-down.

B1: RAD18^ΔC1 (residues 1-341), His-tagged or FLAG-tagged (domain or fragment)
chain: MDSLAESRWPPGLAVMKTIDDLLRCGICFEYFNIAMIIPQCSHNYCSLCIRKFLSYKTQCPTCCVTVTEPDLKNNRILDELVKSLNFARNHLLQFALESPAKSPASSSSKNLAVKVYTPVASRQSLKQGSRLMDNFLIREMSGSTSELLIKENKSKFSPQKEASPAAKTKETRSVEEIAPDPSEAKRPEPPSTSTLKQVTKVDCPVCGVNIPESHINKHLDSCLSREEKKESLRSSVHKRKPLPKTVYNLLSDRDLKKKLKEHGLSIQGNKQQLIKRHQEFVHMYNAQCDALHPKSAAEIVREIENIEKTRMRLEASKLNESVMVFTKDQTEKEIDEIHSK
Regarding B1, the binding result in assay [1] was “binds”.

B2: ^HisRAD18^ΔN1 (residues 113-495) (domain or fragment)
chain: AVKVYTPVASRQSLKQGSRLMDNFLIREMSGSTSELLIKENKSKFSPQKEASPAAKTKETRSVEEIAPDPSEAKRPEPPSTSTLKQVTKVDCPVCGVNIPESHINKHLDSCLSREEKKESLRSSVHKRKPLPKTVYNLLSDRDLKKKLKEHGLSIQGNKQQLIKRHQEFVHMYNAQCDALHPKSAAEIVREIENIEKTRMRLEASKLNESVMVFTKDQTEKEIDEIHSKYRKKHKSEFQLLVDQARKGYKKIAGMSQKTVTITKEDESTEKLSSVCMGQEDNMTSVTNHFSQSKLDSPEELEPDREEDSSSCIDIQEVLSSSESDSCNSSSSDIIRDLLEEEEAWEASHKNDLQDTEISPRQNRRTRAAESAEIEPRNKRNRN
For B2, in assay [2], the binding result is “binds”.
